# Paper PMC2661055, “The C-terminal sequence of the large hepatitis delta antigen is variable but retains the ability to bind clathrin” (Virology Journal, 2009)
# T1: GST-LDII_(C(198–210)) (GST fused to amino acids 198-210 of genotype II LDAg) (hepatitis delta virus genotype II …)
# T1 construct: amino acids 198-210 of the large delta antigen of HDV genotype II, Taiwan-3 strain, GenBank U19598; Inserted downstream of GST in pGEX-4T1 by EcoRI and SalI; also called 13-amino-acid peptide of genotype II LDAg; source: E. coli BL21 (DE3), purified (glutathione beads); not shown: GST, N-terminal, kept
# T1 chain: GPSPPQQRLPLLE
# B1: clathrin heavy chain (full-length, endogenous in HuH-7 cells) (natural protein, human (endogenous in HuH-7), UniProt Q00610 1-1675, looked up)
# chain: MAQILPIRFQEHLQLQNLGINPANIGFSTLTMESDKFICIREKVGEQAQVVIIDMNDPSNPIRRPISADSAIMNPASKVIALKAGKTLQIFNIEMKSKMKAHTMTDDVTFWKWISLNTVALVTDNAVYHWSMEGESQPVKMFDRHSSLAGCQIINYRTDAKQKWLLLTGISAQQNRVVGAMQLYSVDRKVSQPIEGHAASFAQFKMEGNAEESTLFCFAVRGQAGGKLHIIEVGTPPTGNQPFPKKAVDVFFPPEAQNDFPVAMQISEKHDVVFLITKYGYIHLYDLETGTCIYMNRISGETIFVTAPHEATAGIIGVNRKGQVLSVCVEEENIIPYITNVLQNPDLALRMAVRNNLAGAEELFARKFNALFAQGNYSEAAKVAANAPKGILRTPDTIRRFQSVPAQPGQTSPLLQYFGILLDQGQLNKYESLELCRPVLQQGRKQLLEKWLKEDKLECSEELGDLVKSVDPTLALSVYLRANVPNKVIQCFAETGQVQKIVLYAKKVGYTPDWIFLLRNVMRISPDQGQQFAQMLVQDEEPLADITQIVDVFMEYNLIQQCTAFLLDALKNNRPSEGPLQTRLLEMNLMHAPQVADAILGNQMFTHYDRAHIAQLCEKAGLLQRALEHFTDLYDIKRAVVHTHLLNPEWLVNYFGSLSVEDSLECLRAMLSANIRQNLQICVQVASKYHEQLSTQSLIELFESFKSFEGLFYFLGSIVNFSQDPDVHFKYIQAACKTGQIKEVERICRESNCYDPERVKNFLKEAKLTDQLPLIIVCDRFDFVHDLVLYLYRNNLQKYIEIYVQKVNPSRLPVVIGGLLDVDCSEDVIKNLILVVRGQFSTDELVAEVEKRNRLKLLLPWLEARIHEGCEEPATHNALAKIYIDSNNNPERFLRENPYYDSRVVGKYCEKRDPHLACVAYERGQCDLELINVCNENSLFKSLSRYLVRRKDPELWGSVLLESNPYRRPLIDQVVQTALSETQDPEEVSVTVKAFMTADLPNELIELLEKIVLDNSVFSEHRNLQNLLILTAIKADRTRVMEYINRLDNYDAPDIANIAISNELFEEAFAIFRKFDVNTSAVQVLIEHIGNLDRAYEFAERCNEPAVWSQLAKAQLQKGMVKEAIDSYIKADDPSSYMEVVQAANTSGNWEELVKYLQMARKKARESYVETELIFALAKTNRLAELEEFINGPNNAHIQQVGDRCYDEKMYDAAKLLYNNVSNFGRLASTLVHLGEYQAAVDGARKANSTRTWKEVCFACVDGKEFRLAQMCGLHIVVHADELEELINYYQDRGYFEELITMLEAALGLERAHMGMFTELAILYSKFKPQKMREHLELFWSRVNIPKVLRAAEQAHLWAELVFLYDKYEEYDNAIITMMNHPTDAWKEGQFKDIITKVANVELYYRAIQFYLEFKPLLLNDLLMVLSPRLDHTRAVNYFSKVKQLPLVKPYLRSVQNHNNKSVNESLNNLFITEEDYQALRTSIDAYDNFDNISLAQRLEKHELIEFRRIAAYLFKGNNRWKQSVELCKKDSLYKDAMQYASESKDTELAEELLQWFLQEEKRECFGACLFTCYDLLRPDVVLETAWRHNIMDFAMPYFIQVMKEYLTKVDKLDASESLRKEEEQATETQPIVYGQPQLMLTAGPSVAVPPQAPFGYGYTAPPYGQPQPGFGYSM
# notes: clathrin heavy chain, endogenous in the human hepatoma cell line HuH-7, detected with anti-clathrin heavy chain; also called CHC; source: endogenous, HuH-7 lysate
# B2: GST-LDIII_(C(198–210)) (GST fused to amino acids 198-210 of genotype III LDAg) (domain or fragment)
# chain: FTPPPPGYYWVPG
# notes: amino acids 198-210 of the large delta antigen of HDV genotype III, Peru-1 strain, GenBank L22063; Inserted downstream of GST in pGEX-4T1 by EcoRI and SalI; also called 13-amino-acid peptide of genotype III LDAg; source: E. coli BL21 (DE3), purified (glutathione beads); not shown: GST, N-terminal, kept
# B3: 6XHis-CHC_((1–107)) (hexahistidine-tagged fragment, amino acids 1 to 107, of human clathrin heavy chain) (domain or fragment, UniProt Q00610 1-107, looked up)
# chain: MAQILPIRFQEHLQLQNLGINPANIGFSTLTMESDKFICIREKVGEQAQVVIIDMNDPSNPIRRPISADSAIMNPASKVIALKAGKTLQIFNIEMKSKMKAHTMTDD
# notes: human clathrin heavy chain, amino acids 1 to 107, cDNA amplified by RT-PCR and inserted downstream of the hexahistidine tag of pET-15b; also called fragment of CHC; 107-amino-acid peptide of CHC; source: E. coli BL21 (DE3), purified (nickel beads); not shown: His6, N-terminal, kept
# Tests used:
# [1] = target: EGFP-LDII (EGFP fused to full-length large hepatitis delta antigen of HDV genotype II, Taiwan-3 strain) (hepatitis delta virus genotype II (Taiwan-3 strain)); experiment: co-IP; HuH-7 cells transfected with pEGFP-C3 or pEGFP-LD plasmids, TNF-α (30 ng/ml) for 2 h at 24 h post-transfection; lysate precipitated with anti-GFP, blot for CHC; CHC normalised to actin, genotype I set to 1, mean of three experiments
# [2] = target: EGFP-LDIII (EGFP fused to full-length large hepatitis delta antigen of HDV genotype III, Peru-1 strain) (hepatitis delta virus genotype III (Peru-1 strain)); experiment: as above
# [3] = target: T1, GST-LDII_(C(198–210)) (GST fused to …); experiment: pull-down; GST or GST-LD_(C(198–210)) on Glutathione Sepharose 4B beads incubated with HuH-7 cell lysate for 16 h at 4°C; three washes with 0.05% Tween-20 in PBS; blot for CHC; mean of three experiments; settings: one partner purified
# [4] = target: B2; experiment: as above; settings: one partner purified
# [5] = target: B3; experiment: pull-down; GST or GST-LD_(C(198–210)) on Glutathione Sepharose 4B beads incubated with E. coli produced, purified 6XHis-CHC_((1–107)) for 16 h at 4°C; three washes with 0.05% Tween-20 in PBS; SDS-PAGE, silver stain; mean of three experiments; settings: both partners purified
# [6] = target: T1, GST-LDII_(C(198–210)) (GST fused to …); experiment: as above; settings: both partners purified
# [7] = target: B2; experiment: as above; settings: both partners purified
molecule,measurement,setting,value
"clathrin heavy chain (full-length, endogenous in HuH-7 cells) (from UniProt Q00610 1-1675) (natural protein)","amount of CHC co-precipitated, ratio to EGFP-LDI (fold of EGFP-LDI)",[1],2.6
same,"amount of CHC co-precipitated, ratio to EGFP-LDI (fold of EGFP-LDI)",[2],2.2
B1,"normalized amount of CHC bound, ratio to genotype I",[3],1.6 fold of genotype I
same,"normalized amount of CHC bound, ratio to genotype I",[4],1.3 fold of genotype I
B2,binding result,[5],binds
B3,"amount of CHC fragment pulled down, ratio to GST-LDI_(C(198–210))",[6],1.4 fold of GST-LDI_(C(198–210))
same,"amount of CHC fragment pulled down, ratio to GST-LDI_(C(198–210))",[7],0.7 fold of GST-LDI_(C(198–210))
